# Data reported in publication PMC5456053.
# Legend:
# [1] = molecular target: SecYEG-SecDF•YajC (E. coli) (UniProt P0AGA2)
# [2] = molecular target: SecA C34 (C-terminal 34 kD protein; SecA 610-901) (E. coli) (UniProt P10408)
"% pOmpA Translocation, +YEG: in vitro translocation of pOmpA into liposomes with SecYEG-SecDF•YajC (% pOmpA Translocation) [1]","Channel Activity, μA, +YEG: ion current in Xenopus oocytes injected with the fragment, liposomes, SecYEG-SecDF•YajC, pOmpA, ATP-Mg [1]","translocation of pOmpA, liposomes with SecYEG-SecDF•YajC, N-fragment reconstituted with C34 (Fig 6B) (% of the activity of intact SecA) [2]",Binder
0,5.8 μA,50,SecA N668 (SecA 1-668) (domain or fragment) MLIKLLTKVFGSRNDRTLRRMRKVVNIINAMEPEMEKLSDEELKGKTAEFRARLEKGEVLENLIPEAFAVVREASKRVFGMRHFDVQLLGGMVLNERCIAEMRTGEGKTLTATLPAYLNALTGKGVHVVTVNDYLAQRDAENNRPLFEFLGLTVGINLPGMPAPAKREAYAADITYGTNNEYGFDYLRDNMAFSPEERVQRKLHYALVDEVDSILIDEARTPLIISGPAEDSSEMYKRVNKIIPHLIRQEKEDSETFQGEGHFSVDEKSRQVNLTERGLVLIEELLVKEGIMDEGESLYSPANIMLMHHVTAALRAHALFTRDVDYIVKDGEVIIVDEHTGRTMQGRRWSDGLHQAVEAKEGVQIQNENQTLASITFQNYFRLYEKLAGMTGTADTEAFEFSSIYKLDTVVVPTNRPMIRKDLPDLVYMTEAEKIQAIIEDIKERTAKGQPVLVGTISIEKSELVSNELTKAGIKHNVLNAKFHANEAAIVAQAGYPAAVTIATNMAGRGTDIVLGGSWQAEVAALENPTAEQIEKIKADWQVRHDAVLEAGGLHIIGTERHESRRIDNQLRGRSGRQGDAGSSRFYLSMEDALMRIFASDRVSGMMRKLGMKPGEAIEHPWVTKAIANAQRKVESRNFDIRKQLLEYDDVANDQRRAIYSQRNELLD
–,2.2 μA,50,SecA N640 (SecA 1-640) (domain or fragment) MLIKLLTKVFGSRNDRTLRRMRKVVNIINAMEPEMEKLSDEELKGKTAEFRARLEKGEVLENLIPEAFAVVREASKRVFGMRHFDVQLLGGMVLNERCIAEMRTGEGKTLTATLPAYLNALTGKGVHVVTVNDYLAQRDAENNRPLFEFLGLTVGINLPGMPAPAKREAYAADITYGTNNEYGFDYLRDNMAFSPEERVQRKLHYALVDEVDSILIDEARTPLIISGPAEDSSEMYKRVNKIIPHLIRQEKEDSETFQGEGHFSVDEKSRQVNLTERGLVLIEELLVKEGIMDEGESLYSPANIMLMHHVTAALRAHALFTRDVDYIVKDGEVIIVDEHTGRTMQGRRWSDGLHQAVEAKEGVQIQNENQTLASITFQNYFRLYEKLAGMTGTADTEAFEFSSIYKLDTVVVPTNRPMIRKDLPDLVYMTEAEKIQAIIEDIKERTAKGQPVLVGTISIEKSELVSNELTKAGIKHNVLNAKFHANEAAIVAQAGYPAAVTIATNMAGRGTDIVLGGSWQAEVAALENPTAEQIEKIKADWQVRHDAVLEAGGLHIIGTERHESRRIDNQLRGRSGRQGDAGSSRFYLSMEDALMRIFASDRVSGMMRKLGMKPGEAIEHPWVTKAIANAQRKVESRNFD
